# Test results: patent US20240309103A1 (Regeneron, published 2024)
# B1: mAb22805 (antibody, human IgG4, V domains shown)
# VH: QVQLVESGGGVVQPGRSLRLSCAASGFTFSTYGMHWVRQAPGKGLEWVALIWNDGSNKYYADSVKGRFTISRDNSKNTLDLQMNSLRAEDTAVYYCARLNTRITGTTNLDYWGQGTLVTVSS
# VL: DIQMTQSPSSLSASVGDRVTVSCRASQSIANYLNWYQQKPGKAPNLLIYGAYTLQSGVPSRFRGSGSGTDFTLTISSLQPEDFATYYCQQTYSTPPITFGQGTRLEIK
# B2: mAb25502 (antibody, human IgG4, V domains shown)
# VH: QLQLQESGPGLVKPSETLSLTCTVSGGSISSSSYYWGWIRQPPGKGLEWIGSIYYSGSPYYIPSLKSRVTISVDTSKNQFSLKLSSVTAADTAMYYCARQGRGIARAGPFDYWGQGTLVTVSS
# VL: DIQMTQSPSSLSASVGDRVTITCRASQGISNYLAWYQEKPGKVPKLLIYAASTLQSGVPSRFSGSGSGTDFTLTITSLQSEDVATYYCQKYNSAPPWTFGQGTKVEIK
# B3: mAb22033 (antibody, human IgG4, V domains shown)
# VH: QVQLVQSGAEVKKPGASVTVSCKASGYTFTDYYMHWVRQAPGQGLEWMGWIKPNSGGTNSAQRFQGRITMTWDTSISTAYMELSRLRSDDTAVYYCSRGGPVMNYYYYYGMDVWGQGTTVTVSS
# VL: NIQMTQSPSSLSASVGDRVTITCRASQSIDSYLNWYQQKPGKAPKLLIYVASSLQSGVPSRFSGSGSGKDFTLTISSLQPEDFATYYCQQSYSIPTFGQGTRLEIK
# B4: mAb25545 (antibody, human IgG4, V domains shown)
# VH: QVQLVESGGGLVKPGGSLRLSCAASGFTFSDYHLSWIRQAPGKGLEWVSYIRSSGRTIDYAASVKGRFTISRDNAKNSLYLQMNSLRVEDTAVYYCARENWIVLKVYAGIVGAPLDQWGQGTLVTVSS
# VL: not shown
# B5: mAb22810 (antibody, human IgG4, V domains shown)
# VH: EVQLVESGGGLVKPGGSLRLSCVVSGFTFRIYTMNWVRQAPGKGLEWVASISSSSSFINYADSLKGRFTISRDNAQNSLYLQMNSLRAEDTAIYYCARAAGNDVLPGRMDVWGQGTSVTVSS
# VL: EIVLTQSPGTLSLSPGERATLSCRASQSVSSNYLAWYQQKPGQVPSLLIYGASSRATGIPDRFSGSGSGTDFTLTITRLEPEDFAVYYCQQYGISPWTFGQGTKVEIK
# Biological target: T1, hNPR1-mFc:hBNP complex (human, UniProt P16860 103-134)
# T1 construct: also called human NPR1 complexed to BNP
# Assay: SPR, mAb captured, 25C
# Protocol: (§1) Equilibrium dissociation constant (KD) for different NPR1 reagents binding to purified anti-NPR1 monoclonal antibodies (mAbs) were determined using a real-time surface plasmon resonance based Biacore 4000 biosensor. All binding studies were performed in 10 mM HEPES, 150 mM NaCl, 3 mM EDTA, and 0.05% v/v Surfactant Tween-20, pH 7.4 (HBS-ET) running buffer at 25° C. and 37° C. The Biacore CM5 sensor chip surface was first derivatized by amine coupling with either mouse anti-human Fc specific mAb (GE Healthcare, #BR100839) or goat anti-human Fcy specific polyclonal antibody (Jackson ImmunoResearch Laboratories, #BR-1008-39) to capture anti-NPR1 mAbs.
Binder,100 nM Ag Bound (RU),Kd [nM],koff [s⁻¹],kon [M⁻¹ s⁻¹],t½ [h]
B1,84,3.68,0.000152,41400,1.26
B2,78,3.4,0.000236,69400,0.817
B3,85,1.23,6.67e-05,54300,2.89
B4,27,2.72,6.26e-05,23000,3.08

# Biological target: T2, mfNPR1-mFc (monkey)
# T2 construct: also called dimeric monkey NPR1
# T2 chain: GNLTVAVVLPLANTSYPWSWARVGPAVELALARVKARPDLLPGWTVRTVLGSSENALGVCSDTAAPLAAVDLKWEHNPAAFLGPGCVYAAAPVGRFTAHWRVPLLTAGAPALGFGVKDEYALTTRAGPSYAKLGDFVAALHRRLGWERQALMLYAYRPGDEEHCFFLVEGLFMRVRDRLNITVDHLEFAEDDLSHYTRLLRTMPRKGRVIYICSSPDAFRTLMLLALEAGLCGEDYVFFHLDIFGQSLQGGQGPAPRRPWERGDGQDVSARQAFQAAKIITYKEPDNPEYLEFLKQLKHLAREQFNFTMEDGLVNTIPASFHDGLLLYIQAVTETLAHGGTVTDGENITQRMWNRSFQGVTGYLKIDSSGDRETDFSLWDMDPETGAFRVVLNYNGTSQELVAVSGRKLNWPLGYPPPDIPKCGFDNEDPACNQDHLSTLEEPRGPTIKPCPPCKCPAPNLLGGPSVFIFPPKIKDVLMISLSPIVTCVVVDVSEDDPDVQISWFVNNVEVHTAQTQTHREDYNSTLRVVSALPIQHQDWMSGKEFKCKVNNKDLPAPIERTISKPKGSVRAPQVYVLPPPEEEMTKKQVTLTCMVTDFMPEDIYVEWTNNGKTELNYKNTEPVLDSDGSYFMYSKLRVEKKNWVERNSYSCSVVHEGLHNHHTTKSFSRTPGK
# Assay: SPR, mAb captured, 25C
# Protocol: as §1
Binder,100 nM Ag Bound (RU),Kd [nM],koff [s⁻¹],kon [M⁻¹ s⁻¹],t½ [h]
B2,22,1.6,0.000141,88300,1.37
B3,96,0.938,4.85e-05,51700,3.97

# Biological target: T3, mfNPR1-mFc:hBNP complex (monkey; human, UniProt P16860 103-134)
# T3 construct: also called monkey NPR1 complexed to BNP
# Assay: SPR, mAb captured, 25C
# Protocol: as §1
Binder,100 nM Ag Bound (RU),Kd [nM],koff [s⁻¹],kon [M⁻¹ s⁻¹],t½ [h]
B1,113,2.12,9.6e-05,45300,2.01
B2,110,4.08,0.000282,69000,0.683
B3,132,0.781,5.15e-05,65900,3.74
B4,42,2.08,4.97e-05,23900,3.88

# Biological target: T4, hNPR1-mFc:hANP or hNPR1-hFc:hANP complex (human, UniProt P01160 124-151)
# T4 construct: also called human NPR1 complexed to ANP
# Assay: SPR, mAb captured, 25C
# Protocol: as §1
Binder,100 nM Ag Bound (RU),Kd [nM],koff [s⁻¹],kon [M⁻¹ s⁻¹],t½ [h]
B1,84,3.28,0.000141,43100,1.36
B2,81,4.17,0.000253,60600,0.762
B3,84,1.43,8.6e-05,60300,2.24
B5,14,41.4,0.000344,8310,0.567
B4,28,1.98,4.63e-05,23400,4.16

# Biological target: T5, mfNPR1-mFc:hANP complex (monkey; human, UniProt P01160 124-151)
# T5 construct: also called monkey NPR1 complexed to ANP
# Assay: SPR, mAb captured, 25C
# Protocol: as §1
Binder,100 nM Ag Bound (RU),Kd [nM],koff [s⁻¹],kon [M⁻¹ s⁻¹],t½ [h]
B1,116,1.96,9.51e-05,48400,2.02
B2,113,3.56,0.000264,74000,0.73
B3,133,0.815,5.36e-05,65800,3.59
B4,45,2.35,5.37e-05,22800,3.58

# Biological target: T1, hNPR1-mFc:hBNP complex
# Assay: SPR, mAb captured, 37C
# Protocol: as §1
Binder,100 nM Ag Bound (RU),Kd [nM],koff [s⁻¹],kon [M⁻¹ s⁻¹],t½ [h]
B1,112,6.02,0.000313,52000,0.615
B2,102,7.82,0.000472,60300,0.408
B3,108,1.79,9.6e-05,53700,2
B4,56,2.85,9.84e-05,34600,1.95

# Biological target: T2, mfNPR1-mFc
# Assay: SPR, mAb captured, 37C
# Protocol: as §1
Binder,100 nM Ag Bound (RU),Kd [nM],koff [s⁻¹],kon [M⁻¹ s⁻¹],t½ [h]
B3,126,2.06,9.9e-05,48200,1.95
B4,26,2.62,0.000144,55100,1.33

# Biological target: T4, hNPR1-mFc:hANP or hNPR1-hFc:hANP complex
# Assay: SPR, mAb captured, 37C
# Protocol: as §1
Binder,100 nM Ag Bound (RU),Kd [nM],koff [s⁻¹],kon [M⁻¹ s⁻¹],t½ [h]
B1,113,4.91,0.000295,60100,0.653
B2,105,6.49,0.000467,72000,0.412
B3,108,1.69,9.8e-05,57900,1.97
B5,26,75.5,0.00104,13700,0.183
B4,58,2.35,8.61e-05,36700,2.24

# Biological target: T5, mfNPR1-mFc:hANP complex
# Assay: SPR, mAb captured, 37C
# Protocol: as §1
Binder,100 nM Ag Bound (RU),Kd [nM],koff [s⁻¹],kon [M⁻¹ s⁻¹],t½ [h]
B1,153,3.3,0.000209,63300,0.922
B2,143,5.76,0.000524,91000,0.367
B3,169,1.31,8.9e-05,68000,2.16
B4,86,2.04,8.18e-05,40100,2.35
